This note sets out measurements from patent US20240115721A1 (published 2024).

As usually defined, the Kd is the constant that tells how readily two partners part at equilibrium.

Holding throughout (experiment): BLI (Octet HTX)
(In general: Biolayer interferometry detects binding as a change in optical thickness at a sensor tip.)

Test [1] addresses T1, Recombinant Human DLL3 Protein (amino acids Ala27-Ala479, cat #9749-DL, R&D Systems) (UniProt Q9NYJ7 27-479).
T1 chain: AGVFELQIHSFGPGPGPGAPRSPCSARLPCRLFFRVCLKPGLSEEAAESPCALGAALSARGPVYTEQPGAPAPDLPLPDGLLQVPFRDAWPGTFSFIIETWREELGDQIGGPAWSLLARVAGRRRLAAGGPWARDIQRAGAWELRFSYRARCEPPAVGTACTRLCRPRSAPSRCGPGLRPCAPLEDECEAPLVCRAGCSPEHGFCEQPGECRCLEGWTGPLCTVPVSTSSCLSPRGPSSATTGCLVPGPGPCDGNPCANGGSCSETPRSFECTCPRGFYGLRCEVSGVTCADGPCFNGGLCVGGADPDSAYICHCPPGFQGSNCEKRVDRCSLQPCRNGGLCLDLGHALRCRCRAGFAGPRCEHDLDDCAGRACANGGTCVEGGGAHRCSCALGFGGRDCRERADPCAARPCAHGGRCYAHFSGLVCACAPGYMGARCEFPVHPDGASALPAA

Test [2] concerns the target T1, Recombinant Human DLL3 Protein (amino …).
The target is the same in test [3].

Where two headings read alike, the source gives them in different places.

B1: 7-I1-B (antibody, V domains shown)
VH: EVQLVESGGGLVKPGGSLRLSCAASGFTFSNTWMSWVRQAPGKGLEWVGRIKSKSDGGTTDYAAPVKGRFTISRDDSKNTLYLQMNSLKTEDTAVYYCTQYYWNSFDYWGQGTLVTVSS
VL: not shown
For B1, the figures for the Kd in test [1] and in test [2] were 0.686 nM and 0.68 nM, respectively.

B2: 6-G23-F (antibody, V domains shown)
VH: QVQLVQSGAEVKKPGASVKVSCKASGYTFTSYYIHWVRQAPGQGLEWMGIIDPSDGSTNYAQKFQGRVTMTRDTSTSTVYMELSSLRSEDTAVYYCARDREYNYYGLDVWGQGTTVTVSS
VL: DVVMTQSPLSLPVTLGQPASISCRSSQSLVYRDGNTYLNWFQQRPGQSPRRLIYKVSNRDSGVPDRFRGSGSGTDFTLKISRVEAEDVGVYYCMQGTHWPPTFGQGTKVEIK
With B2, the Kd in test [1] and in test [2] was 0.16 nM each time.

B3: 2-C8-A (antibody, V domains shown)
VH: EVQLVESGGGLVQPGGSQRLSCAASGFTFSSYWMNWVRQAPGKGLEWVANIKEDGSEKYYVDSVKGRFTISRDNAKNSLYLQMNSLRAEDTAVYYCARDPGWAPFDYWGQGTLVTVSS
VL: DIQMSQSPSSLSASVGDRVTITCRASQGISNYLAWFQQKPGKAPKSLIYAASSLQSGVPSKFSGSGSGTDFTLAISSLQPEDFATYYCQQYNSFPYTFGQGTTLEIK
Regarding B3, the Kd in test [3] and in test [2] was 0.668 nM throughout.

B4: 10-O18-A (antibody, V domains shown)
VH: QVQLQESGPGLVKPSETLSLTCTVSGGSINSYYWSWIRQPPGKGLEWIGYIFYSGITNYNPSLKSRVTISLDTSKNQFSLKLSSVTAADTAVYYCARIGVAGFYFDYWGQGTLVTVSS
VL: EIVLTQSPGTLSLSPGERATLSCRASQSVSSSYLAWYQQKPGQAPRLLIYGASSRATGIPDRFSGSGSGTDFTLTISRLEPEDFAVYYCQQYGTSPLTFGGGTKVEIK
On to B4, for which the Kd amounted to 0.602 nM in test [3] and 0.62 nM in test [2].
